The target of experiment [1] is Coagulation Factor XIa (human) (UniProt P03951). Put plainly: kinetics of protease inhibition (second order rate constant k2, discontinuous method, residual protease activity); protease 5-75 nM, at least 10:1 molar ratio of AAT variant to protease (pseudo-first order), 37 °C, PPNE buffer (20 mM sodium phosphate pH 7.4, 100 mM NaCl, 0.1 mM EDTA, 0.1% polyethylene glycol 8000).

The target is the same in experiment [2]. The experiment is described as above. This is another data set of the same source.
Experiment [3] addresses thrombin (human). Described as above.
Experiment [4] has as its target Coagulation Factor XIa (human) (UniProt P03951). The experiment is described as above. The source holds these as a separate data set.
Experiment [5] shares this target. Put plainly: stoichiometry of inhibition (SI) titration, residual FXIa activity; varying ratios of AAT variant to FXIa incubated at ambient temperature for 2 h; residual FXIa activity determined at 37 °C; regression to zero activity.
Experiment [6] addresses thrombin (human). Put plainly: kinetics of protease inhibition (second order rate constant k2, discontinuous method, residual protease activity); protease 5-75 nM, at least 10:1 molar ratio of AAT variant to protease (pseudo-first order), 37 °C, PPNE buffer (20 mM sodium phosphate pH 7.4, 100 mM NaCl, 0.1 mM EDTA, 0.1% polyethylene glycol 8000). This is another data set of the same source.

A further experiment deals with Factor Xa (human). The experiment is described as above.
The target in another experiment is Factor XIIa (human). The description is as above.
Experiment [7] addresses Activated Protein C (human). Described as above.
A further experiment addresses kallikrein (human). The experiment is described as above.

Like-named read-outs stand apart in the source and are kept apart here.

For the sequence “AAT M358R/PRSTE, from the pBAD P2'/P3' bacterial expression library (designed binder)”, in experiment [1], the k2 (second order rate constant of inhibition) came out at 45000.

Consider “AAT M358R (alpha-1 antitrypsin M358R), arabinose-inducible system (natural protein)”, for which the k2 (second order rate constant of inhibition) in [2] was 190000 M⁻¹ s⁻¹; in the experiment with thrombin (human) [3], 160000 M⁻¹ s⁻¹; in experiment [1], 180000 M⁻¹ s⁻¹.

For the sequence “AAT M358R/HASTGQ, cleavable GST fusion system (designed binder)”, in experiment [4], the k2 (second order rate constant of inhibition) is 34000 M⁻¹ s⁻¹. In [5], the stoichiometry of inhibition (SI) amounted to 12.7.

Turning to “AAT M358R/PRSTE, cleavable GST fusion system (designed binder)”, the k2 (second order rate constant of inhibition) in experiment [4] was 41000 M⁻¹ s⁻¹; in the experiment with thrombin (human) [6], 1200 M⁻¹ s⁻¹. Besides, the stoichiometry of inhibition (SI) in experiment [5] is 3.3.

Consider “AAT M358R/QSIIS, arabinose-inducible system (designed binder)”, for which, in the experiment with thrombin (human) [3], the k2 (second order rate constant of inhibition) stood at 100000 M⁻¹ s⁻¹.

“AAT M358R/PRSLD, from the pBAD P2'/P3' bacterial expression library (designed binder)”: in experiment [1], the k2 (second order rate constant of inhibition) is 38000.

Take “AAT M358R (alpha-1 antitrypsin M358R), cleavable GST fusion system (natural protein)”: the k2 (second order rate constant of inhibition) with Factor Xa (human) was 35000 M⁻¹ s⁻¹; with Factor XIIa (human), 23000 M⁻¹ s⁻¹; in [7], 40000 M⁻¹ s⁻¹; in the experiment with kallikrein (human) it was 40000 M⁻¹ s⁻¹; in experiment [1], 170000 M⁻¹ s⁻¹; in experiment [4] it was 160000 M⁻¹ s⁻¹. In addition, in the experiment with thrombin (human) [6], the k2 (second order rate constant of inhibition) amounted to 210000 M⁻¹ s⁻¹. Also, the stoichiometry of inhibition (SI) in experiment [5] was 2.1.

The values above are taken from paper PMC7946950.
